{"source": "patent US11351270B2", "about": "“Junctophilin-2 fragments and uses therefor” (University of Iowa Research Foundation, priority 2016, dated 2022)", "key": {"cardiac hypertrophy": {"system": "cardiac hypertrophy", "assay": "Angiotensin-induced cardiac hypertrophy in JP2NT OE mice", "format": "in vivo, mouse", "procedure": "A transgenic mouse line with cardiac specific overexpression of an exogenous protein sequence corresponding to JP2NT was prepared. JP2NT (JP2(1-565)) transgenic mice were generated based on a tet-off system. The Flag and HA tagged JP2NT cDNA was cloned downstream of tet-operated alpha-MHC promoter, enabling the cardiac specific and conditional expression of JP2NT (FIG. 9A). The plasmid (αMHC-JP2NT) was delivered by pronuclear injection into fertilized eggs to make transgenic founders. The transgenic mouse lines were backcrossed to C57 background for 9 generations. αMHC-JP2NT mice have been crossed with αMHC-tTA mice to generate double transgenic αMHC-tTA-JP2NT mice (noted as JP2NT OE mice). This allows for inducible and cardiac-specific expression of JP2NT, in which tTA binds to tet-operon and activates transcription of JP2NT. Thus, the expression and nuclear localization of JP2NT in transgenic mice have been confirmed."}, "RyR2 and Cav1.2": {"system": "RyR2 and Cav1.2", "assay": "Coimmunoprecipitation with E-C coupling channels", "format": "binding, mouse", "details": "anti-HA immunoprecipitation", "excerpt": "FIGS. 5A-H. JP2 truncations are nonfunctional in regulating Ca^2+ transients. A) An antibody against the HA tag was used to reveal the localization of adenoviral expression of tagged full-length JP2 and truncations, as indicated, in adult wild-type cardiomyocytes. All the three version of JP2 can be localized in the striated pattern. B) Full-length JP2 and JP2(1-565) forms complexes with RyR2 and Cav1.2 In vivo. An antibody against HA was used for immunoprecipitation […]. The RyR2 and Cav1.2 that were pulled down were detected by Western blot analysis. […] IB, immunoblot. C) Adenovirus-mediated expression of full-length JP2, FLAG-JP2(1-565)-HA, and JP2(566-end)-HA in JP2-KD) cardiomyocytes. D) Representative steady-state Ca^2+ transients under 1-Hz field stimulation. The fluorescence intensity (F) of Ca^2+ imaging was normalized to the baseline (FO). The red lines overlapping on Ca^2+ imaging show the profile of the moment of Ca^2+ transient firing on the scanning line in a point-by-point way. A straighter line means better synchronization of the Ca^2+ transients. Note that expression of full-length JP2, but not JP2 truncations, improves the amplitude and synchronization of Ca^2+ transients. E-G) Summary of Ca^2+ transient amplitude, index of desynchronization (mean absolute deviation of firing time), and duration of 50% decay (T5) (n=68, 70, 70, and 52 for Ad-Empty, Ad-JP2, […], and Ad-JP2(566-end), respectively). Only full-length JP2 Improves the amplitude, synchronization, and decay of Ca^2+ transients. H) Summary of SR Ca^2+ content, which was assessed by caffeine-induced SR Ca^2+ release (n=17, 17, 17, and 12 for Ad-Empty, Ad-JP2, Ad-JP2(1-565), and Ad-JP2(566-end), respectively). **, p<0.01 versus indicated groups; N.S., not significant.\nCleavage at the primary calpain proteolysis site (Arg-565/Thr-566) splits apart the C-terminal SR-binding TM domain and N-terminal plasma membrane-binding MORN domains of JP2. […]"}, "[1]": {"system": "pressure overload hypertrophy and heart failure", "assay": "Transaortic banding (TAB) pressure overload in JP2NT-OE mice", "format": "in vivo, mouse", "procedure": "Animal experiments were performed in accordance with the Guide for the Care and Use of Laboratory Animals (National Institutes of Health publication 85-23, revised 1996) and were approved by the Institutional Animal Care and Use Committee at the University of Iowa. Cardiac specific JP2NT overexpression vector was constructed by subcloning mouse JP2NT cDNA (Guo et al., 2015) into a tet-operated αMHC transgenic vector, as described previously (Guo et al., 2014). The oocyte injection of transgenic vectors was carried out by University of Iowa transgenic core. The injected oocytes were transferred to pseudopregnant recipients. Transgenic offsprings were backcrossed with C57BL/6J mice for >9 generations to generate transgenic mice in a C57BL/6J background. These transgenic mice were crossed with αMHC-tTA (C57 background) (Guo et al., 2014) to generate double transgenic mice (JP2NT-OE) carrying both αMHC-JP2NT and αMHC-tTA. The non-overexpression single transgenic littermates were used as control. PCR was used to determine the genotype of transgenic mice. Nine to 10-wk-old male JP2NT-OE mice and their control littermates were subjected to pressure overload by transaortic banding (TAB) surgery, as described (Guo et al., 2014). Transthoracic echocardiograms were performed with conscious mice in the University of Iowa Cardiology Animal Phenotyping Core Laboratory, using a Vevo 2100 Imager (Visual Sonics), as described previously (Cheng et al., 1993)."}, "genomic DNA": {"system": "genomic DNA", "assay": "ChIP-seq of JP2NT-OE hearts", "format": "binding, mouse", "details": "anti-HA ChIP-seq", "procedure": "ChIP-seq from transgenic myocardium was performed using the antibody against HA-tag, which pulls down the HA-tagged JP2NT. Sequencing libraries were prepared for the pulled-down DNA and input DNA (randomly fragmented genomic DNA), and then were subjected to Illumina sequencing (NextSeq 500 platform, 75 bp single end reads). The quality of sequencing reads was evaluated by FastQC (version 0.11.3) software (http://www.bioinformatics.babraham.ac.uk/projects/fastqc/) and the sequencing adaptor was trimmed by Cutadapt (version 1.8.1) software (Martin, 2011). Processed sequencing reads were aligned to mouse genome (mm10) by Bowtie 2 (version 2.2.5) software (Langmead et al., 2012) with the “-end-to-end” mode. MACS (version 1.4.2) software […] was used to call enriched peaks (the cutoff of significance was p value<1e-10). Homer (version 4.8.3) software (Heinz et al., 2010) was used to analyze the enriched genomic features of peaks, identify the target genes, and search the binding motifs."}, "[2]": {"system": "MEF2C-mediated transcriptional activity", "assay": "MEF2 luciferase reporter assay", "format": "cell-based", "details": "293 cells co-transfected with MEF2C and PMEF2-firefly, relative to PSV40-Renilla", "procedure": "Firefly and Renilla reporter plasmids and JP2NT variants were co-transfected into HEK293 cells. The protein of the cells was harvested 48 hours after transfection. Promega dual luciferase system was used to evaluate the luciferase activity.\nTo examine whether JP2NT regulates MEF2-mediated transcription, a luciferase reporter system with firefly cDNA driven by the desmin enhancer-derived MEF2 binding site (PMEF2-firefly) (Naya et al., 1999) was used."}, "[3]": {"details": "after TAB, relative to controls"}}, "data": [{"molecule": "JP2NT: shorter form of Junctophilin-2 including the first 565 amino acids of N-terminus of JP2 (protein, UniProt Q9BR39 1-565, looked up, fragment, GST or adenoviral forms, shorter form of Junctophilin-2 including the first 565 amino acids of N-terminus of JP2) MSGGRFDFDDGGAYCGGWEGGKAHGHGLCTGPKGQGEYSGSWNFGFEVAGVYTWPSGNTFEGYWSQGKRHGLGIETKGRWLYKGEWTHGFKGRYGIRQSSSSGAKYEGTWNNGLQDGYGTETYADGGTYQGQFTNGMRHGYGVRQSVPYGMAVVVRSPLRTSLSSLRSEHSNGTVAPDSPASPASDGPALPSPAIPRGGFALSLLANAEAAARAPKGGGLFQRGALLGKLRRAESRTSVGSQRSRVSFLKSDLSSGASDAASTASLGEAAEGADEAAPFEADIDATTTETYMGEWKNDKRSGFGVSERSSGLRYEGEWLDNLRHGYGCTTLPDGHREEGKYRHNVLVKDTKRRMLQLKSNKVRQKVEHSVEGAQRAAAIARQKAEIAASRTSHAKAKAEAAEQAALAANQESNIARTLARELAPDFYQPGPEYQKRRLLQEILENSESLLEPPDRGAGAAGLPQPPRESPQLHERETPRPEGGSPSPAGTPPQPKRPRPGVSKDGLLSPGAWNGEPSGEGSRSVTPSEGAGRRSPARPATERMAIEALQAPPAPSREPEVALYQG", "values": [{"measurement": "Angiotensin-li induced cardiac hypertrophy", "setting": "cardiac hypertrophy", "result": "resistant"}, {"measurement": "interaction with RyR2 and Cav1.2", "setting": "RyR2 and Cav1.2", "result": "interact"}, {"measurement": "cardiac function (ejection fraction)", "setting": "[1]; 3 weeks after TAB, relative to controls", "result": "improved cardiac function"}, {"measurement": "pressure overload induced heart failure", "setting": "[1]; JP2NT OE mice", "result": "resistant"}, {"measurement": "heart weight/body weight ratio", "setting": "[1]; [3]", "result": "lower"}, {"measurement": "lung edema (lung weight/body weight ratio)", "setting": "[1]; [3]", "result": "reduced lung edema"}, {"measurement": "cardiac morphology or function at baseline", "setting": "[1]; baseline, no TAB", "result": "no effect"}, {"measurement": "JP2NT-binding genomic DNA regions (p<10^−10)", "setting": "genomic DNA", "result": "18,242"}, {"measurement": "genes encompassed by JP2NT-binding regions", "setting": "genomic DNA", "result": "10,587 genes"}, {"measurement": "MEF2-responsive luciferase signal", "setting": "[2]", "result": "attenuated the MEF2-responsive signal in a dose-dependent manner"}]}]}
